The values below come from patent publication US20120058906A1 (published 2012).

Assay [1] addresses T1, rHuman IGF-1 sR (IGF-1 sR), CF (R&D Systems Cat#391-GR) (human, UniProt P08069 31-932).
T1 construct: Bought soluble receptor; also called insulin-like growth factor-1 soluble receptor; IGF-R1
In words: ECL (MSD Multi-Spot) titration, antigen spotted on plate; Fab 0.096 µM; blank spot 917.

Assay [2] addresses T1, rHuman IGF-1 sR (IGF-1 sR), CF (R&D …). In words: ECL (MSD Multi-Spot) titration, antigen spotted on plate; Fab 0.48 µM; blank spot 2945.
Assay [3] shares this target. In words: ECL (MSD Multi-Spot) titration, antigen spotted on plate; Fab 0.0192 µM; blank spot 751.
Assay [4] shares this target. In words: ECL (MSD Multi-Spot) titration, antigen spotted on plate; Fab 0.51 µM; blank spot 1096.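 Further: blank spot per well as comparator with Hit at signal to blank ratio of 4 or more.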
The target in assay [5] is T2, Recombinant Human DLL4 (R&D Systems Cat#1506-D4/CF) (human, UniProt Q9NR61 27-524).
T2 construct: Bought recombinant protein; also called delta-like protein 4
The description is as above.

The target in assay [6] is T3, rHuman ErbB2/Fc Chimera, CF (R&D Systems Cat#1129-ER) (human, UniProt P04626 23-652).
T3 construct: Bought Fc chimera; also called HER2/neu; human epidermal growth factor 2 receptor; Fc part of the bought chimera not given
Described as above.

The target in assay [7] is T4, rHuman HGF R/c-MET/Fc Chimera, CF (R&D Systems Cat#358-MT/CF) (human, UniProt P08581 25-932).
T4 construct: Bought Fc chimera; also called HGF R/Fc; hepatocyte growth factor receptor; Fc part of the bought chimera not given
The description is as above.

Assay [8] addresses T5, rHuman CD44/Fc Chimera, CF (R&D Systems Cat#3660-CD) (human, UniProt P16070 21-220).
T5 construct: Bought Fc chimera; Fc part of the bought chimera not given
The assay is described as above.

In assay [9] the target is T1, rHuman IGF-1 sR (IGF-1 sR), CF (R&D …). In words: ECL (MSD Multi-Spot) titration, antigen spotted on plate; Fab 0.1275 µM; blank spot 530.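 Further: blank spot per well as comparator with Hit at signal to blank ratio of 4 or more.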
For assay [10], the target named is T2, Recombinant Human DLL4 (R&D Systems …). The assay is described as above.
Assay [11] concerns the target T3, rHuman ErbB2/Fc Chimera, CF (R&D …). The description is as above.
The target in assay [12] is T4, rHuman HGF R/c-MET/Fc Chimera, CF (R&D …). The assay is described as above.
Assay [13] deals with T5, rHuman CD44/Fc Chimera, CF (R&D Systems …). The description is as above.
Assay [14] has as its target T1, rHuman IGF-1 sR (IGF-1 sR), CF (R&D …). In words: ECL (MSD Multi-Spot) titration, antigen spotted on plate; Fab 0.00797 µM; blank spot 364.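 Further: blank spot per well as comparator with Hit at signal to blank ratio of 4 or more.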
Assay [15] has as its target T2, Recombinant Human DLL4 (R&D Systems …). The assay is described as above.
The target of assay [16] is T3, rHuman ErbB2/Fc Chimera, CF (R&D …). Described as above.
The target in assay [17] is T4, rHuman HGF R/c-MET/Fc Chimera, CF (R&D …). The description is as above.
The target of assay [18] is T5, rHuman CD44/Fc Chimera, CF (R&D Systems …). The description is as above.
The target of assay [19] is T1, rHuman IGF-1 sR (IGF-1 sR), CF (R&D …). In words: ECL (MSD Multi-Spot) titration, antigen spotted on plate; Fab 0.03188 µM; blank spot 536.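 Further: blank spot per well as comparator with Hit at signal to blank ratio of 4 or more.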
Assay [20] has as its target T2, Recombinant Human DLL4 (R&D Systems …). The description is as above.
Assay [21] concerns the target T3, rHuman ErbB2/Fc Chimera, CF (R&D …). The description is as above.
Assay [22] addresses T4, rHuman HGF R/c-MET/Fc Chimera, CF (R&D …). Described as above.
The target in assay [23] is T5, rHuman CD44/Fc Chimera, CF (R&D Systems …). The assay is described as above.

B1: Fab VH1-46_IGHD6-13*01_IGHJ4*01 & A27_IGKJ1*01 (Fab, V domains shown)
VH: QVQLVQSGAEVKKPGASVKVSCKASGYTFTSYYMHWVRQAPGQGLEWMGIINPSGGSTSYAQKFQGRVTMTRDTSTSTVYMELSSLRSEDTAVYYCAREGYSSSWYDYFDYWGQGTLVTVSS
VL: not shown
notes: Made as a Fab in E. coli: VH joined to the CH1 of Plasmid A (Flag and His tags), VL joined to the kappa constant region of Plasmid C
B1: the ECL signal in assay [1] turned out to be 2450; in assay [2] it was 8930; in [3], 1830.

B2: Fab VH4-34_IGHD7-27*01_IGHJ4*01 & L5_IGKJ1*01 (Fab, V domains shown)
VH: QVQLQQWGAGLLKPSETLSLTCAVYGGSFSGYYWSWIRQPPGKGLEWIGEINHSGSTNYNPSLKSRVTISVDTSKNQFSLKLSSVTAADTAVYYCARANWGDYFDYWGQGTLVTVSS
VL: DIQMTQSPSSVSASVGDRVTITCRASQGISSWLAWYQQKPGKAPKLLIYAASSLQSGVPSRFSGSGSGTDFTLTISSLQPEDFATYYCQQANSFPPWTFGQGTKVEIKR
notes: as for B1
On to B2, for which the ECL signal in assay [4] came out at 2240; in assay [5], 5180; in assay [6] it was 1530; in [7], 1990; in assay [8] it was 2010; in assay [9] it was 1040. The ECL signal in assay [10] was found to be 2380; in assay [11] it was 857; in assay [12] it was 853; in [13], 926; in [14], 564; in assay [15], 872. The ECL signal was 493 in [16]; 419 in assay [17]; 490 in assay [18]; 765 in [19]; 1280 in assay [20]; 584 in assay [21]. For the same molecule, the ECL signal was found to be 693 in assay [22] and 653 in [23].
